Experimental findings from paper PMC5159498, “IQGAP1 Interaction with RHO Family Proteins Revisited” (The Journal of Biological Chemistry, 2016) are described below.

What all share (settings): both partners purified
Assay [1] addresses T1, IQGAP1 GRD1-RGCT S1443E (aa 877-1558) (human, UniProt P46940 877-1558, S1443E).
T1 construct: human IQGAP1 aa 877-1558 with the phosphomimetic mutation S1443E (printed as S1143E in the methods, S1443E everywhere else), from the vector pET46 EkLIC; source: E. coli (pLysS BL21(DE3), CodonPlusRIL or BL21(Rosetta)), purified (Ni-NTA, gel filtration)
T1 sequence (looked up): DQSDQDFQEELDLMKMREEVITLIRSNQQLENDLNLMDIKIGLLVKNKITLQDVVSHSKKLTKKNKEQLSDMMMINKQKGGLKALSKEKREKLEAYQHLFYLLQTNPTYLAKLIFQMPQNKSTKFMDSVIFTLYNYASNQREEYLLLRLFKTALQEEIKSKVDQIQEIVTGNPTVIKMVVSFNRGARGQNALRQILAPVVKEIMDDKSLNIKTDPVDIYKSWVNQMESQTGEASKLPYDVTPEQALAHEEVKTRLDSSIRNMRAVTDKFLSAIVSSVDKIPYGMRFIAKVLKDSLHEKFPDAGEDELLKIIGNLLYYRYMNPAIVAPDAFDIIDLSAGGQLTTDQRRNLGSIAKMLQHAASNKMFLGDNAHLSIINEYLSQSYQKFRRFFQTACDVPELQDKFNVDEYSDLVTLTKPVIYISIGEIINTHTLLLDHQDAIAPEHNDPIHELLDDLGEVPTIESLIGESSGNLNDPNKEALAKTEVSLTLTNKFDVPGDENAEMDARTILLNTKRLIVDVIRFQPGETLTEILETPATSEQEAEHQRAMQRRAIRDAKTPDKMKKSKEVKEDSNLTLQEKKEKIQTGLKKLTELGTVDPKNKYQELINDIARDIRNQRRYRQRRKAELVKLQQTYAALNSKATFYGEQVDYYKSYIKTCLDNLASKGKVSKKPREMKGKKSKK
In words: fluorescence polarisation; IQGAP1 variant titrated to mGppNHp-bound RHO protein (1 μM); equilibrium Kd (eKd), quadratic fit; 30 mM Tris/HCl pH 7.5, 150 mM NaCl, 5 mM MgCl2, 3 mM DTT, 25 °C. On the technique in general: In fluorescence polarisation assays a small probe gives low polarisation when free and higher when bound to something large.

The target of assay [2] is T2, IQGAP1 GRD1-CT (aa 863-1657) (human, UniProt P46940 863-1657).
T2 construct: human IQGAP1, GRD, RGCT and CT domains, aa 863-1657; The GST tag was cleaved 'if needed'; also called C-terminal half of IQGAP1; C-terminal 795 amino acids of IQGAP1
T2 sequence (looked up): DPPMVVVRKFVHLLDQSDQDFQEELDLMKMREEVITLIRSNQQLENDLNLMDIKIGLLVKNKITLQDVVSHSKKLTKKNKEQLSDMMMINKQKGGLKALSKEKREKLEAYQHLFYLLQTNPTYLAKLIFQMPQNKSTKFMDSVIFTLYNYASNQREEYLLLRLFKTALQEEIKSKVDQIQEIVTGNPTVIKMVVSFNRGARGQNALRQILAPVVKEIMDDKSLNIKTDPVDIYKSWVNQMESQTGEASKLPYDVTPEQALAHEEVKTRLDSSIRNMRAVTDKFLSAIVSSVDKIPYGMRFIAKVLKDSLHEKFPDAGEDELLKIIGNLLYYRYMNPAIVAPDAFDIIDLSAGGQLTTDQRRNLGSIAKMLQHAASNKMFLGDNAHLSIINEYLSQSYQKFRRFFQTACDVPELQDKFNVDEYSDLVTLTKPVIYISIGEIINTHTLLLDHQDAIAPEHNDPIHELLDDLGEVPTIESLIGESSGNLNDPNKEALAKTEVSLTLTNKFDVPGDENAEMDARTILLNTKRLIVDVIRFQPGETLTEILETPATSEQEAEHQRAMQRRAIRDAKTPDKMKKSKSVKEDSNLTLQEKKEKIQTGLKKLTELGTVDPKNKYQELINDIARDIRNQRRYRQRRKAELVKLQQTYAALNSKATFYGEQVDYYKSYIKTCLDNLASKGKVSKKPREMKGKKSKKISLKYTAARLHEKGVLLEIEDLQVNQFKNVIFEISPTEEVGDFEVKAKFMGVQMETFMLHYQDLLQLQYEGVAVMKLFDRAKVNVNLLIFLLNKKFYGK
In words: fluorescence polarisation; IQGAP1 variant titrated to mGDP-bound (inactive) RHO protein (1 μM), same conditions as with mGppNHp; 30 mM Tris/HCl pH 7.5, 150 mM NaCl, 5 mM MgCl2, 3 mM DTT, 25 °C.

The target in assay [3] is T1, IQGAP1 GRD1-RGCT S1443E (aa 877-1558). In words: stopped-flow fluorometry; mGppNHp-bound RHO protein (0.2 μM) rapidly mixed with IQGAP1 variant (2 μM, or 2-12 μM for kon); koff by displacement with 10 μM non-fluorescent GppNHp-bound GTPase; Kd = koff/kon; 30 mM Tris-HCl pH 7.5, 10 mM KH2PO4/K2HPO4, 5 mM MgCl2, 3 mM DTT.

B1: CDC42 (aa 1-178) (domain or fragment)
chain: not shown
notes: human CDC42, C-terminally truncated, aa 1-178; Loaded non-covalently with mGppNHp, tGppNHp, mGDP or non-fluorescent GppNHp; the nucleotide is named in the format of each assay; also called CDC42^WT; CDC42-mGppNHp
As usually defined, the Kd is the free concentration of one partner at which half of the binding sites on the other are occupied at equilibrium, for simple one-to-one binding. A low value points to tighter binding. For the molecule B1, the Kd is 16.3 µM in assay [1], 95.1 µM in assay [2] and 7.03 µM in assay [3].
